The series concerns the molecule itself. The series can be described thus: SEC; Superdex-75 HR 10/300, Tris buffer with 10 mM EDTA, 1 ml/min; calibrated with alcohol dehydrogenase, BSA, carbonic anhydrase and cytochrome C; nondissociating conditions.

We go through one protein from article PMC6851296, “Atomic-resolution crystal structures of the immune protein conglutinin from cow reveal specific interactions of its binding site with N-acetylglucosamine” (The Journal of Biological Chemistry, 2019).

B1: recombinant fragment of bovine conglutinin consisting of the CRD and neck regions (rfBC, residues 199-351 of native conglutinin) (domain or fragment)
chain: GSAEANALKQRVTILDGHLRRFQNAFSQYKKAVLFPDGQAVGEKIFKTAGAVKSYSDAEQLCREAKGQLASPRSSAENEAVTQMVRAQEKNAYLSMNDISTEGRFTYPTGEILVYSNWADGEPNNSDEGQPENCVEIFPDGKWNDVPCSKQLLVICEF
notes: vector-derived first five residues (GLAEV in conglutinin); bovine conglutinin, neck plus carbohydrate recognition domain, the C-terminal 153 residues Asn-199 to Phe-351; also called trimeric recombinant neck plus CRD conglutinin fragment; recombinant homotrimeric fragment of conglutinin
By stoichiometry N is commonly meant the number of molecules, sites or subunits per partner or assembly. Turning to B1, the “stoichiometry N” value was determined as 3.
